# Data as given in the RNAGym collection of RNA variant scans (doi:10.1073/pnas.2313332121).
# Fewer inactive variants are shown than the library holds.
# B1: TPR 5TU (parent)
# chain: GGAUCUUCUCGAUCUAACAAAAAAGACAAAUCUGCCACAAAGCUUGAGAGCAUCUUCGGAUGCAGAGGCGGCAGCCUUCGGUGGCGCGAUAGCGCCAACGUUCUCAACUAUGACACGCAAAACGCGUGCUCCGUUGAAUGGAGUUUAUCAUG
# Variants of: B1
# Experiment: polymerase ribozyme fitness, log enrichment relative to wild type (log ratio); higher = more active; in vitro selection for triplet polymerase activity
# Procedure, shortened: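 Fitness is a logarithmic measure of how a genotype enriched relative to the wild type, with replicate averages weighted by inverse variance. The logarithm uses base 2, and enrichment came from Illumina sequencing of input and output libraries. Those libraries were PCR-built, transcribed mutants of each subunit of a heterodimeric triplet polymerase ribozyme, passed through one triplicate in vitro selection round that included frozen incubation at −7 °C, gel excision of extended constructs and streptavidin-bead capture. Genotypes were kept only if they had ≥10 input reads and ≥1 read per output.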
row,Variant,polymerase ribozyme fitness (log ratio)
1,A52G U82G,0.0484
2,U53A C85A A89C,-3.89
3,G50C G84U,-3.79
4,C51A A64G C87A G128U G140C,≤ -4.2
5,C51U C57G G58C C69A A98U C105G C116U A150U,≤ -4.2
6,A52C G88A A113U A121C,≤ -4.2
7,A52G G58A A66U U77G G94A C99G A107G,≤ -4.2
8,A52C U61A G88U C96U G136U,≤ -4.2
9,C51U C85A G143C,-2.7
10,U53A C75G,≤ -4.2
11,A52G A66C G67C G141C,≤ -4.2
12,G50U G58U,0.771
13,A52C G58U C75A C93A,≤ -4.2
14,C51A G92U U109C,≤ -4.2
15,G50U G80A A91G C99G,≤ -4.2
16,A52C G84U C125U,-2.64
17,A52C A107C A122C A138G,≤ -4.2
18,C51A U82G A115U,-3.17
19,C51U U104G,-1.04
20,U53A A73U C85U G124U U134C U135C,≤ -4.2
21,C51U A52U G94U,-2.8

row,Variant,polymerase ribozyme fitness (log ratio)
1,U53A C85A A106G U144G,-2.88
2,C51A G58C U111A,≤ -4.2
3,G50U G136U C149G,-4.16
4,U53A C54U C57A G62A C85A G126U,≤ -4.2
5,G50U G84C C85G A106G C116U G152A,≤ -4.2
6,A52G U55A U90G C96U C103A C131G,≤ -4.2
7,A52G C85A,-2.19
8,A52U U148C,≤ -4.2
9,C51G A66U G67A C118U,≤ -4.2
10,A52G G80U,-3.34
11,A52U U53A C96U A119C,-2.05
12,A52G C54U G58C G86A A89U,-3.29
13,A52C U78A C96A U144G,≤ -4.2
14,C51A C99U,-1.63
15,A52U A150C,-4.03
16,A52C C87A C93U A98U G128U U148G,≤ -4.2
17,A52C U145G,-1.17
18,U53A C96U C114G,-4.15
19,A52C C87A,≤ -4.2
20,U53A C85A G124A,-2.89
21,A52U A107C,≤ -4.2

row,Variant,polymerase ribozyme fitness (log ratio)
1,A52G C131A,-1.46
2,A52G C54U,0.381
3,G50C C51U C54G C87U,≤ -4.2
4,G50U U130A,-2.51
5,A52U U53A G58U,-0.762
6,A52U C54U U55A C57G A73G G83C,≤ -4.2
7,A52G G84U C96U U139C U144C,≤ -4.2
8,A52G G84A C99U A120G,-1.11
9,C51A U55A G94A C125A,-3.04
10,C51G U90G,≤ -4.2
11,C51A U55A C95A A110U G128C,≤ -4.2
12,A52G G59A C75U,-0.737
13,A52C A119U G141C,-2.95
14,G50C U53A,-3.26
15,G50C G83C U135A,≤ -4.2
16,U53A A91G,-3.09
17,A52C U55A C131G,≤ -4.2
18,U53A A89C,-0.605
19,G50C C96G,-2.66
20,G50C C96U,-2.14
21,G50U G94U C103U,-2.08

row,Variant,polymerase ribozyme fitness (log ratio)
1,A52G U77G U82C A91G A106U G140A U144A G152U,≤ -4.2
2,A52C U102A,-1.68
3,G50U C57U,1
4,C51A A98U C125G,-0.926
5,U53A C54G G67C C118U U130A,≤ -4.2
6,C51U G67A U77G C116G G126A C129A,≤ -4.2
7,G50U A122G U135A,-0.743
8,U53A A91C U101C,≤ -4.2
9,G50C C57U U82G A121G G143C,≤ -4.2
10,G50C G59C,-3.38
11,C51U A110G,-3.47
12,U53A A122G,-0.748
13,C51A C76G G88C C103A C125A G140A,≤ -4.2
14,A52U C85U C96A C116U,-2.69
15,G50C G94U A121U G128U,≤ -4.2
16,C51U C87A G141U,≤ -4.2
17,A52G U77G G88C,≤ -4.2
18,A52U U55G C87A A119U,≤ -4.2
19,U53A C54A G58C A64C G126A U135C A138C,≤ -4.2
20,C51U A60G A66C U82C G94A U109A G136A A138C,≤ -4.2
